Test results as given in patent US20220218785A1 (ALPINE IMMUNE SCIENCES, published 2022).
Where a chain is given by its changes, count along the chain named. In names and notes the source's numbering stands.

T1: human ICOS (human, UniProt Q9Y6W8 21-199)
T1 construct: whole, on cells
T1 sequence (looked up): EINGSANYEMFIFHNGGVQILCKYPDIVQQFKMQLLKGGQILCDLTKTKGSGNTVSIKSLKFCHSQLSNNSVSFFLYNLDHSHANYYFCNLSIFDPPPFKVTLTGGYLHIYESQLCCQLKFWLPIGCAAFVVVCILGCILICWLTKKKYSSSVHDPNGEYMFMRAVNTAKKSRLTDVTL

B1: ICOSL ECD Truncation #4 with N52H/N57Y/Q100R/F172S, Fc fusion (Fc fusion)
chain: DTQEKEVRAMVGSDVELSCACPEGSRFDLNDVYVYWQTSESKTVVTYHIPQHSSLEYVDSRYRNRALMSPAGMLRGDFSLRLFNVTPQDEQKFHCLVLSRSLGFQEVLSVEVTLHVAANFSVPVVSAPHSPSQDELTFTCTSINGYPRPNVYWINKTDNSLLDQALQNDTVSLNMRGLYDVVSVLRIARTPSVNIGCCIENVLLQQNGGGGSGGGGSEPKSSDKTHTCPPCPAPEAEGAPSVFLFPPKPKDTLMISRTPEVTCVVVDVSHEDPEVKFNWYVDGVEVHNAKTKPREEQYNSTYRVVSVLTVLHQDWLNGKEYKCKVSNKALPAPIEKTISKAKGQPREPQVYTLPPSREEMTKNQVSLTCLVKGFYPSDIAVEWESNGQPENNYKTTPPVLDSDGSFFLYSKLTVDKSRWQQGNVFSCSVMHEALHNHYTQKSLSLSPG
B2: ICOSL ECD with N52H/N57Y/Q100R/F172S, Fc fusion with (G4S)2 linker (Fc fusion)
chain: DTQEKEVRAMVGSDVELSCACPEGSRFDLNDVYVYWQTSESKTVVTYHIPQHSSLEYVDSRYRNRALMSPAGMLRGDFSLRLFNVTPQDEQKFHCLVLSRSLGFQEVLSVEVTLHVAANFSVPVVSAPHSPSQDELTFTCTSINGYPRPNVYWINKTDNSLLDQALQNDTVSLNMRGLYDVVSVLRIARTPSVNIGCCIENVLLQQNLTVGSQTGNDIGERDKITENPVSTGEKNAATGGGGSGGGGSEPKSSDKTHTCPPCPAPEAEGAPSVFLFPPKPKDTLMISRTPEVTCVVVDVSHEDPEVKFNWYVDGVEVHNAKTKPREEQYNSTYRVVSVLTVLHQDWLNGKEYKCKVSNKALPAPIEKTISKAKGQPREPQVYTLPPSREEMTKNQVSLTCLVKGFYPSDIAVEWESNGQPENNYKTTPPVLDSDGSFFLYSKLTVDKSRWQQGNVFSCSVMHEALHNHYTQKSLSLSPG
notes: also called ICOSCL ECD with N52H/N57Y/Q100R/F1725
B3: ICOSL IgV with N52H/N57Y/Q100R, Fc fusion with (G4S)2 linker (Fc fusion)
chain: DTQEKEVRAMVGSDVELSCACPEGSRFDLNDVYVYWQTSESKTVVTYHIPQHSSLEYVDSRYRNRALMSPAGMLRGDFSLRLFNVTPQDEQKFHCLVLSRSLGFQEVLSVEVTLHVAANFSVGGGGSGGGGSEPKSSDKTHTCPPCPAPEAEGAPSVFLFPPKPKDTLMISRTPEVTCVVVDVSHEDPEVKFNWYVDGVEVHNAKTKPREEQYNSTYRVVSVLTVLHQDWLNGKEYKCKVSNKALPAPIEKTISKAKGQPREPQVYTLPPSREEMTKNQVSLTCLVKGFYPSDIAVEWESNGQPENNYKTTPPVLDSDGSFFLYSKLTVDKSRWQQGNVFSCSVMHEALHNHYTQKSLSLSPG
notes: also called ICOSCL IgV with N52H/N57Y/Q100R
B4: variant ICOSL ECD-Fc N52H/N57Y/Q100P, AAA linker, Fc C220S/L234A/L235E/G237A (SEQ ID NO: 40) (Fc fusion)
chain: DTQEKEVRAMVGSDVELSCACPEGSRFDLNDVYVYWQTSESKTVVTYHIPQHSSLEYVDSRYRNRALMSPAGMLRGDFSLRLFNVTPQDEQKFHCLVLSPSLGFQEVLSVEVTLHVAANFSVPVVSAPHSPSQDELTFTCTSINGYPRPNVYWINKTDNSLLDQALQNDTVFLNMRGLYDVVSVLRIARTPSVNIGCCIENVLLQQNLTVGSQTGNDIGERDKITENPVSTGEKNAATAAAEPKSSDKTHTCPPCPAPEAEGAPSVFLFPPKPKDTLMISRTPEVTCVVVDVSHEDPEVKFNWYVDGVEVHNAKTKPREEQYNSTYRVVSVLTVLHQDWLNGKEYKCKVSNKALPAPIEKTISKAKGQPREPQVYTLPPSREEMTKNQVSLTCLVKGFYPSDIAVEWESNGQPENNYKTTPPVLDSDGSFFLYSKLTVDKSRWQQGNVFSCSVMHEALHNHYTQKSLSLSPGK
notes: Made in 293 cells; Fc or allotypes thereof
B5: variant ICOSL ECD-Fc N52H/N57Y/Q100R/F172S, AAA linker, Fc C220S/L234A/L235E/G237A (SEQ ID NO: 40) (Fc fusion)
chain: B4 chain with P100R, F172S
notes: as for B4
B6: ICOSL ECD with N52H/N57Y/Q100R/C198R, Fc C220S/L234A/L235E/G237A (SEQ ID NO: 40) (Fc fusion, not shown: small tags and cut ends)
chain (part 1 of 2): DTQEKEVRAMVGSDVELSCACPEGSRFDLNDVYVYWQTSESKTVVTYHIPQHSSLEYVDSRYRNRALMSPAGMLRGDFSLRLFNVTPQDEQKFHCLVLSRSLGFQEVLSVEVTLHVAANFSVPVVSAPHSPSQDELTFTCTSINGYPRPNVYWINKTDNSLLDQALQNDTVFLNMRGLYDVVSVLRIARTPSVNIGCRIENVLLQQNLTVGSQTGNDIGERDKITENPVSTGEKNAAT
chain (part 2 of 2): EPKSSDKTHTCPPCPAPEAEGAPSVFLFPPKPKDTLMISRTPEVTCVVVDVSHEDPEVKFNWYVDGVEVHNAKTKPREEQYNSTYRVVSVLTVLHQDWLNGKEYKCKVSNKALPAPIEKTISKAKGQPREPQVYTLPPSREEMTKNQVSLTCLVKGFYPSDIAVEWESNGQPENNYKTTPPVLDSDGSFFLYSKLTVDKSRWQQGNVFSCSVMHEALHNHYTQKSLSLSPGK
B7: ICOSL ECD Truncation #7 with N52H/N57Y/Q100R/F172S, Fc fusion (Fc fusion)
chain: DTQEKEVRAMVGSDVELSCACPEGSRFDLNDVYVYWQTSESKTVVTYHIPQHSSLEYVDSRYRNRALMSPAGMLRGDFSLRLFNVTPQDEQKFHCLVLSRSLGFQEVLSVEVTLHVAANFSVPVVSAPHSPSQDELTFTCTSINGYPRPNVYWINKTDNSLLDQALQNDTVSLNMRGLYDVVSVLRIARTPSVNIGCCIENGGGGSGGGGSEPKSSDKTHTCPPCPAPEAEGAPSVFLFPPKPKDTLMISRTPEVTCVVVDVSHEDPEVKFNWYVDGVEVHNAKTKPREEQYNSTYRVVSVLTVLHQDWLNGKEYKCKVSNKALPAPIEKTISKAKGQPREPQVYTLPPSREEMTKNQVSLTCLVKGFYPSDIAVEWESNGQPENNYKTTPPVLDSDGSFFLYSKLTVDKSRWQQGNVFSCSVMHEALHNHYTQKSLSLSPG
B8: variant ICOSL ECD-Fc N52H/N57Y/Q100R/F172S, G4S linker, Fc C220S/L234A/L235E/G237A (SEQ ID NO: 40) (Fc fusion)
chain: DTQEKEVRAMVGSDVELSCACPEGSRFDLNDVYVYWQTSESKTVVTYHIPQHSSLEYVDSRYRNRALMSPAGMLRGDFSLRLFNVTPQDEQKFHCLVLSRSLGFQEVLSVEVTLHVAANFSVPVVSAPHSPSQDELTFTCTSINGYPRPNVYWINKTDNSLLDQALQNDTVSLNMRGLYDVVSVLRIARTPSVNIGCCIENVLLQQNLTVGSQTGNDIGERDKITENPVSTGEKNAATGGGGSEPKSSDKTHTCPPCPAPEAEGAPSVFLFPPKPKDTLMISRTPEVTCVVVDVSHEDPEVKFNWYVDGVEVHNAKTKPREEQYNSTYRVVSVLTVLHQDWLNGKEYKCKVSNKALPAPIEKTISKAKGQPREPQVYTLPPSREEMTKNQVSLTCLVKGFYPSDIAVEWESNGQPENNYKTTPPVLDSDGSFFLYSKLTVDKSRWQQGNVFSCSVMHEALHNHYTQKSLSLSPGK
notes: as for B4
B9: variant ICOSL ECD-Fc N52H/N57Y/Q100P, G4S linker, Fc C220S/L234A/L235E/G237A (SEQ ID NO: 40) (Fc fusion)
chain: B8 chain with R100P, S172F
notes: as for B4

Legend:
[1] = target: CD80 (ligand of the blocking assay) (UniProt P33681); experiment: competition, flow cytometry: CD80 on CHO cells expressing CD28
Chain of CD80 (ligand of the blocking assay) (P33681 35-242 limits assumed): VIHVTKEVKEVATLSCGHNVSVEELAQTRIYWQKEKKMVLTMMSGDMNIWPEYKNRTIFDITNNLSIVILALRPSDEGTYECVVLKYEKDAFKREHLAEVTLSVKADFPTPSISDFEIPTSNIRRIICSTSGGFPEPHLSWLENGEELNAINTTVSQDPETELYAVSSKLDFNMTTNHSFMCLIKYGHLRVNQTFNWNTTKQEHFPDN

[2] = target: CD86 labeled with AlexaFluor-647 (UniProt P42081); experiment: competition, flow cytometry: labelled CD86 on CHO cells expressing CD28
Chain of CD86 labeled with AlexaFluor-647 (P42081 24-247 limits assumed): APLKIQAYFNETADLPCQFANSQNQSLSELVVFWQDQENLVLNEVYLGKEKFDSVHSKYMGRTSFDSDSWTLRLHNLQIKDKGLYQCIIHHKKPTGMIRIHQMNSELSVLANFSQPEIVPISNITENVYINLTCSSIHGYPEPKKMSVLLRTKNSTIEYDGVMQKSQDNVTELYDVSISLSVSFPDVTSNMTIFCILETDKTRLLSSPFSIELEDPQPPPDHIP

human ICOS [3] = target: T1, human ICOS; experiment: flow cytometry, cells with human ICOS; protein from CHO
human CD28 [4] = target: T2, human CD28 (human, UniProt P10747 19-220); experiment: flow cytometry, cells with human CD28; protein from CHO
T2 construct: whole, on cells

human CTLA-4 [5] = target: T3, human CTLA-4 (human, UniProt P16410 36-223); experiment: flow cytometry, cells with human CTLA-4; protein from 293
T3 construct: whole, on cells
T3 sequence (P16410 36-223): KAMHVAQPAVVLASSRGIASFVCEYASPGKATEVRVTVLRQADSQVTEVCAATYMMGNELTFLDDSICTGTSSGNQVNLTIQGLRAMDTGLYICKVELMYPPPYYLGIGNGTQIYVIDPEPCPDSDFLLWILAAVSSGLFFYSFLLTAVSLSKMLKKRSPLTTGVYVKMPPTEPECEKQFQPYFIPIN

human CTLA-4 [6] = target: T3, human CTLA-4; experiment: flow cytometry, cells with human CTLA-4; protein from CHO
human CTLA-4 [7] = target: T3, human CTLA-4; experiment: as above; remark: listed apart in the source
human CD28 [8] = target: T2, human CD28; experiment: flow cytometry, cells with human CD28; protein from 293
human ICOS [9] = target: T1, human ICOS; experiment: flow cytometry, cells with human ICOS; protein from 293
human CD28 [10] = target: T2, human CD28; experiment: flow cytometry, cells with human CD28; protein from CHO; remark: listed apart in the source
human ICOS [11] = target: T1, human ICOS; experiment: flow cytometry, cells with human ICOS; protein from CHO; remark: listed apart in the source
human CTLA-4 [12] = target: T3, human CTLA-4; experiment: flow cytometry, Expi293 cells with human CTLA-4
Source text: (§1) Expi293 cells transfected with cognate binding partners, human CD28, ICOS and CTLA4, were used as target cells in binding studies.

human ICOS [13] = target: T1, human ICOS; experiment: flow cytometry, Expi293 cells with human ICOS
Method: Binding studies were carried out on transfected HEK293 cells generated to express the full-length mammalian (human) surface ligands, CD28, ICOS or CTLA-4, using a transient transfection system (Life Technologies, USA). As a control, binding to mock (non-transfected) cells also was assessed. For staining by flow cytometry, 200,000 cells of appropriate transient transfection or negative control (mock) were plated in 96 well round bottom plates, and, then incubated in staining buffer (PBS, phosphate buffered saline; 1% BSA, bovine serum albumin; and 0.1% sodium azide) for 20 minutes to block non-specific binding. Cells were resuspended in staining buffer containing 100 nM to 1 nM variant immunomodulatory protein in 50 μL. Mean Fluorescence Intensity (MFI) was calculated for each transfectant and negative parental line with Cell Quest Pro software (Becton Dickinson, USA) or a Hypercyt flow cytometer (Intellicyte, USA).
as §1

human CD28 [14] = target: T2, human CD28; experiment: flow cytometry, Expi293 cells with human CD28
Source text: as §1

Molecule | MFI (ΔWT) (human ICOS [3]) | MFI (ΔWT) (human CD28 [4]) | MFI (ΔWT) (human CTLA-4 [5]) | MFI (ΔWT) (human CTLA-4 [6]) | MFI (ΔWT) (human CTLA-4 [7]) | MFI (ΔWT) (human CD28 [8]) | MFI (ΔWT) (human ICOS [9]) | MFI (ΔWT) (human CD28 [10]) | MFI (ΔWT) (human ICOS [11]) | MFI (ΔWT) (human CTLA-4 [12]) | MFI (ΔWT) (human ICOS [13]) | MFI (ΔWT) (human CD28 [14]) | other results
belatacept (Fc fusion) |  |  |  |  |  |  |  |  |  |  |  |  | IC50 [1]: 2.5 nM; IC50 [2]: 2.8 nM
B1 | 0.7 fold vs WT | 39.7 fold vs WT | 0.7 fold vs WT | 49.8 fold vs WT | 0.7 fold vs WT | 4.1 fold vs WT | 0.6 fold vs WT | 3.6 fold vs WT | 1.3 fold vs WT |  |  |  | 
B2 | 1.1 fold vs WT | 63.9 fold vs WT | 0.7 fold vs WT | 42.6 fold vs WT | 0.7 fold vs WT | 3.6 fold vs WT | 1.4 fold vs WT | 4.1 fold vs WT | 1.4 fold vs WT |  |  |  | 
B3 | 0.7 fold vs WT | 49 fold vs WT | 0.8 fold vs WT | 27 fold vs WT | 0.7 fold vs WT | 4.7 fold vs WT | 0.8 fold vs WT | 4.9 fold vs WT | 1.2 fold vs WT |  |  |  | 
B4 |  |  |  |  |  |  |  |  |  | 18.2 fold vs WT | 1.2 fold vs WT | 13.1 fold vs WT | 
B5 |  |  |  |  |  |  |  |  |  | 20.6 fold vs WT | 1.3 fold vs WT | 12.5 fold vs WT | 
B6 | 0.7 fold vs WT |  | 0.7 fold vs WT |  | 0.7 fold vs WT |  |  |  |  |  |  |  | MFI (human ICOS [3]): 7700 MFI; MFI (human CTLA-4 [5]): 8720 MFI; MFI (human CTLA-4 [7]): 8750 MFI
B7 | 0.7 fold vs WT |  | 0.8 fold vs WT |  | 0.7 fold vs WT | 3.4 fold vs WT | 0.7 fold vs WT | 3.7 fold vs WT |  |  |  |  | 
B8 |  |  |  |  |  |  |  |  |  | 22.7 fold vs WT | 1.4 fold vs WT | 12.9 fold vs WT | 
B9 |  |  |  |  |  |  |  |  |  | 17.1 fold vs WT | 1.3 fold vs WT | 13.4 fold vs WT | 
